From patent US20250114450A1 (AKESO BIOPHARMA, published 2025)

Target: T1, FcγRI (UniProt P12314 16-288, limits assumed)
T1 construct: construct not described; also called CD64; FcγRIa
Assay: BLI (Fortebio Octet), FcγRI immobilized on HIS1K sensor, antibody 3.12-50 nM, 1:1 fit
Protocol: 1 μg/mL FcγRIa was immobilized on the HIS1K sensor for 50 s. The sensor was equilibrated in a buffer for 60 s, and the binding of the immobilized CD64 on the sensor to the antibodies at concentrations of 3.12-50 nM (two-fold dilution) was determined for 120 s. The antibody was dissociated in the buffer for 120 s. The sensor was refreshed 4 times in 10 mM glycine pH 1.5, each for 5 s. The detection temperature was 30° C. and the frequency was 0.3 Hz. The data were analyzed by 1:1 model fitting to obtain affinity constants.

T1 sequence (P12314 16-288 limits assumed): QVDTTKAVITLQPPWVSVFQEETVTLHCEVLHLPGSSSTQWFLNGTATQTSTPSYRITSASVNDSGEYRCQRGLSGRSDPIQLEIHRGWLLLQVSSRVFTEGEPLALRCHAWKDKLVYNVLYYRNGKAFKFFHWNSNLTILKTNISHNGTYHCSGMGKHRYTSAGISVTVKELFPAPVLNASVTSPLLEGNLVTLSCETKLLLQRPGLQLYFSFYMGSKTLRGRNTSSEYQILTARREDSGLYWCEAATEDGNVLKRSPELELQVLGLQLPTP

Kd: 3.68 nM
B1: Bevacizumab (antibody, human IgG1, kappa)
heavy: not shown
light: not shown
notes: also called Avastin; anti-VEGFA monoclonal antibody
